Results published in US20230227838A1, “ENHANCED CELL SURVIVAL AGAINST BIOTIC AND ABIOTIC STRESSES THROUGH SALICYLICK ACID-INDUCED NPR1 CONDENSATES” (priority 2020, published 2023).

What follows are binders tested against sim3-GFP (Arabidopsis thaliana) (UniProt P93002) (assay: sim3-GFP IP, LC-MS/MS).
Chain of sim3-GFP (Arabidopsis thaliana) (P93002 other isoform, or with tags, fused parts or gaps): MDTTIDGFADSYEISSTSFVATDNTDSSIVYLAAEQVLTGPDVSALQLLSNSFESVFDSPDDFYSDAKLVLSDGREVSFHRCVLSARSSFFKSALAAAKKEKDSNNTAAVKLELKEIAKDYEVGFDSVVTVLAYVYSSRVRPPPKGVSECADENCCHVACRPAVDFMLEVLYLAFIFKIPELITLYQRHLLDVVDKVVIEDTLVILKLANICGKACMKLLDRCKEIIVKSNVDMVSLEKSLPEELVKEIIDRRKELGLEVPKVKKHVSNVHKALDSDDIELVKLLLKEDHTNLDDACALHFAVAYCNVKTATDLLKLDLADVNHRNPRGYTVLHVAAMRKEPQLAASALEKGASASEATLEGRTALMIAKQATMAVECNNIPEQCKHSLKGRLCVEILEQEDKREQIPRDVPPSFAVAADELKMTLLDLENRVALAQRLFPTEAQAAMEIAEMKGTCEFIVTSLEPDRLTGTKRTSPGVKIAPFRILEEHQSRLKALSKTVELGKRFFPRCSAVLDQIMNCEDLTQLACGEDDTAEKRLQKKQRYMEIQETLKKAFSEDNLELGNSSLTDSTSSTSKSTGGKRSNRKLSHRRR

Row | Normalized Fold Change: SA vs Mock [fold] | Binder
1 | 8.08 | UGT73B2, UDP-glucosyltransferase 73B2 (protein, UniProt Q94C57 1-483, looked up) UDP-glucosyl transferase 73B2: MGSDHHHRKLHVMFFPFMAYGHMIPTLDMAKLFSSRGAKSTILTTSLNSKILQKPIDTFKNLNPGLEIDIQIFNFPCVELGLPEGCENVDFFTSNNNDDKNEMIVKFFFSTRFFKDQLEKLLGTTRPDCLIADMFFPWATEAAGKFNVPRLVFHGTGYFSLCAGYCIGVHKPQKRVASSSEPFVIPELPGNIVITEEQIIDGDGESDMGKFMTEVRESEVKSSGVVLNSFYELEHDYADFYKSCVQKRAWHIGPLSVYNRGFEEKAERGKKANIDEAECLKWLDSKKPNSVIYVSFGSVAFFKNEQLFEIAAGLEASGTSFIWVVRKTKDDREEWLPEGFEERVKGKGMIIRGWAPQVLILDHQATGGFVTHCGWNSLLEGVAAGLPMVTWPVGAEQFYNEKLVTQVLRTGVSVGASKHMKVMMGDFISREKVDKAVREVLAGEAAEERRRRAKKLAAMAKAAVEEGGSSFNDLNSFMEEFSS
2 | 11.2 | NTF2B, nuclear transport factor 2B (protein, UniProt Q9C7F5 2-126, looked up) Nuclear transport factor 2B: SQMDPDAVSKAFVEHYYSTFDTNRVGLAGLYQEASMLTFEGQKIQGVQSIVAKLTSLPFQQCKHHISTVDCQPSGPASGMLVFVSGNLQLAGEEHALKFSQMFHLMPTPQGSFYVFNDIFRLNYA
3 | 46.9 | RH39 (protein, UniProt Q56X76 1-621, looked up) DEAD-box ATP-dependent RNA helicase 39: MVGASRTILSLSLSSSLFTFSKIPHVFPFLRLHKPRFHHAFRPLYSAAATTSSPTTETNVTDPDQLKHTILLERLRLRHLKESAKPPQQRPSSVVGVEEESSIRKKSKKLVENFQELGLSEEVMGALQELNIEVPTEIQCIGIPAVMERKSVVLGSHTGSGKTLAYLLPIVQLMREDEANLGKKTKPRRPRTVVLCPTRELSEQVYRVAKSISHHARFRSILVSGGSRIRPQEDSLNNAIDMVVGTPGRILQHIEEGNMVYGDIAYLVLDEADTMFDRGFGPEIRKFLAPLNQRALKTNDQGFQTVLVTATMTMAVQKLVDEEFQGIEHLRTSTLHKKIANARHDFIKLSGGEDKLEALLQVLEPSLAKGSKVMVFCNTLNSSRAVDHYLSENQISTVNYHGEVPAEQRVENLKKFKDEEGDCPTLVCTDLAARGLDLDVDHVVMFDFPKNSIDYLHRTGRTARMGAKGKVTSLVSRKDQMLAARIEEAMRNNESLESLTTDNVRRDAARTHITQEKGRSVKQIREVSKQRNSRDKPSSSSPPARSTGGKTPVRKSSSSSFSKPRKASSPPEKSSKPKRKILKTVGSRSIAARGKTGSDRRPGKKLSVVGFRGKSSSARAS
4 | 2.2 | PDIL2-2, PDI-like 2-2 (protein, UniProt Q9MAU6 27-447, looked up) Protein disulfide-isomerase like 2-2: LYGSSSPVLQLTPSNFKSKVLNSNGVVLVEFFAPWCGHCQSLTPTWEKVASTLKGIATVAAIDADAHKSVSQDYGVRGFPTIKVFVPGKPPIDYQGARDAKSISQFAIKQIKALLKDRLDGKTSGTKNGGGSSEKKKSEPSASVELNSSNFDELVTESKELWIVEFFAPWCGHCKKLAPEWKKAANNLKGKVKLGHVNCDAEQSIKSRFKVQGFPTILVFGSDKSSPVPYEGARSASAIESFALEQLESNAGPAEVTELTGPDVMEDKCGSAAICFVSFLPDILDSKAEGRNKYLEMLLSVADKFKKDPYGFVWVAAGKQPDLEKRVGVGGYGYPAMVALNAKKGAYAPLKSGFEVKHLKDFVKEAAKGGKGNLPIDGTMEIVKTEAWDGKDGEVVDADEFSLEDLMGNDDEASTESKDDL
5 | 19.6 | GPX8, glutathione peroxidase 8 (protein, UniProt Q8LBU2 1-167, looked up) Probable glutathione peroxidase 8: MATKEPESVYELSIEDAKGNNLALSQYKDKVLLIVNVASKCGMTNSNYTELNELYNRYKDKGLEILAFPCNQFGDEEPGTNDQITDFVCTRFKSEFPIFNKIEVNGENASPLYKFLKKGKWGIFGDDIQWNFAKFLVDKNGQAVQRYYPTTSPLTLEHDIKNLLNIS

Continued, binder first:

Row | Binder | Normalized Fold Change: SA vs Mock [fold]
6 | ADL3, CF1, DL3, DRP2B, dynamin-like 3 (protein, UniProt Q9LQ55 1-920, looked up) Dynamin-2B: MEAIDELSQLSDSMRQAASLLADEDPDETSSSRRPATSLNVVALGNVGAGKSAVLNSLIGHPVLPTGENGATRAPIIIDLSREESLSSKAIILQIDNKNQQVSASALRHSLQDRLSKGASGRGRDEIYLKLRTSTAPPLKLIDLPGLDQRIVDDSMIGEHAQHNDAILLVVVPASQASEISSSRALKIAKEYDPESTRTVGIISKIDQAAENPKSLAAVQALLSNQGPPKTTDIPWVALIGQSVSIASAQSGGSENSLETAWRAESESLKSILTGAPQSKLGRIALVDTLASQIRSRMKLRLPNILTGLQGKSQIVQDELARLGEQLVSSAEGTRAIALELCREFEDKFLLHLAGGEGSGWKVVASFEGNFPNRIKKLPLDRHFDLNNVKRIVLEADGYQPYLISPEKGLRSLIKTVLELAKDPARLCVDEVHRVLVDIVSASANATPGLGRYPPFKREVVAIASAALDGFKNEAKKMVVALVDMERAFVPPQHFIRLVQRRMERQRREEELKGRSSKKGQDAEQSLLNRATSPQPDGPSSTGGSLKSLRDKLMPQDKDKDKEKETPEVSGLKTAGPEGEITAGYLMKKSAKTNGWSRRWFVLNEKTGKLGYTKKQEERNFRGTVTLEECSIEEISDDEGEKSKSSKDKKSNGPDSKGPGLVFKITCRVPYKTVLKAHNALVLKAESMVDKNEWINKLQKVIQARGGQVGSASMRQSLSEGSLDKMVRKPVDPEEELRWMSQEVRGYVEAVLNSLAANVPKAVVLCQVEKSKEDMLNQLYSSISAIGNERIESLIQEDQNVKRRRDRYQKQSSLLSKLTRQLSIHDNRAAAASSWSDNSGTESSPRTNGGSSGEDWMNAFNAAASGPDSLKRYGSGGHSRRYSDPAQNGEDSSGSGGSSRRTTPNRLPPAPPQSGSSYRY | 2.5
7 | ALDH7B4, aldehyde dehydrogenase 7B4 (protein, UniProt Q9SYG7 1-508, looked up) Aldehyde dehydrogenase family 7 member B4: MGSANNEYEFLSEIGLTSHNLGSYVAGKWQANGPLVSTLNPANNQPIAQVVEASLEDYEQGLKACEEAAKIWMQVTAPKRGDIVRQIGDALRSKLDYLGRLLSLEMGKILAEGIGEVQEVIDMCDFAVGLSRQLNGSVIPSERPNHMMLEMWNPLGIVGVITAFNFPCAVLGWNACIALVCGNCVVWKGAPTTPLITIAMTKLVAEVLEKNNLPGAIFTAMCGGAEIGEAIAKDTRIPLVSFTGSSRVGSMVQQTVNARSGKTLLELSGNNAIIVMDDADIQLAARSVLFAAVGTAGQRCTTCRRLLLHESVYDKVLEQLLTSYKQVKIGNPLEKGTLLGPLHTPESKKNFEKGIEVIKSQGGKILTGGKAVEGEGNFVEPTIIEISADAAVVKEELFAPVLYVLKFKSFGEAVAINNSVPQGLSSSIFTRNPENIFRWIGPLGSDCGIVNVNIPTNGAEIGGAFGGEKATGGGREAGSDSWKQYMRRSTCTINYGNELPLAQGINFG | 2.01
8 | GRF6, G-box regulating factor 6 (protein, UniProt P48349 1-248, looked up) 14-3-3-like protein G-BOX factor 14 lambda: MAATLGRDQYVYMAKLAEQAERYEEMVQFMEQLVTGATPAEELTVEERNLLSVAYKNVIGSLRAAWRIVSSIEQKEESRKNDEHVSLVKDYRSKVESELSSVCSGILKLLDSHLIPSAGASESKVFYLKMKGDYHRYMAEFKSGDERKTAAEDTMLAYKAAQDIAAADMAPTHPIRLGLALNFSVFYYEILNSSDKACNMAKQAFEEAIAELDTLGEESYKDSTLIMQLLRDNLTLWTSDMQEQMDEA | 2.01
9 | FPA, RNA binding (protein, UniProt Q8LPQ9 1-901, looked up) Flowering time control protein FPA: MALSMKPFRADDSGFQSNNLWVGSLTPETTESDLTELFGRYGDIDRITVYSSRGFAFIYYRHVEEAVAAKEALQGANLNGSQIKIEYARPAKPCKSLWVGGIGPNVSKDDLEEEFSKFGKIEDFRFLRERKTAFIDYYEMDDALQAKSMNGKPMGGSFLRVDFLRSQAPKKEQWAGSYDNRNGNMNHKPQYPHSYEDFKGDVQPSKVLWIGFPPTATQCNDEQILHNAMILFGEIERVKSYPSRNFALVEFRSAEEARQCKEGLQGRLFNNPRIKIMYSNDELPPEQDDTSFYSGMKRSRTDMFNNDPSFVSSPHSTGIPGSMRPLRGTNERSYNGAEYNDVVGKEPNWRRPSANGTGILPSPTGPGILPSPAQGTRRPMRSNPDSWEGYDPAQLVRESKRTRRDGSVDGFTPMGVDERSFGRGSVAARPIRGPPDSDHIWRGMIAKGGTPVCCARCVPMGKGIETKLPEVVNCSARTDLNMLAKHYAVAIGCEIVFFVPDREEDFASYTEFLRYLSSKDRAGVAKLDDGTTLFLVPPSDFLTDVLQVTRQERLYGVVLKLPPPAVPVTASYRQESQSNPLHYMDQARDSPANASHSLYPPRENYIRGAPEHLTAASKPSVSEPLRIPNNAAPQAGVSLTPELLATLASILPATSQPAAPESHQPMSGPSTVVSTAHQSNGLYNGEAPSQAWKRGPQTVHDASNQSFQQYGNQYTPAGQLPPPPSRYPPASNNPNYTSGMVHGNMQYQSQSVNMPQLSPLPNMPHNNYSMYTQGSSNHPVSQPMVQQYQPEASMPNQNYGPIPSYQQANFHGVTTNQAQNLNPSQFQAAMQPPADKANLEPQNQALRLQPMISGDGQGTTDGEVDKNQRYQSTLQFAANLLLQIQQKQQQQSSGTPAGQGP | 4.87
10 | VLN2, villin 2 (protein, UniProt O81644 1-976, looked up) Villin-2: MSTKVLDPAFQGAGQKPGTEIWRIENFEAVPVPKSEHGKFYMGDTYIVLQTTQNKGGAYLFDIHFWIGKDTSQDEAGTAAVKTVELDAVLGGRAVQHREIQGHESDKFLSYFKPCIIPLEGGVASGFKTVEEEVFETRLYTCKGKRAIRLKQVPFARSSLNHDDVFILDTEEKIYQFNGANSNIQERAKALEVVQYLKDKYHEGTCDVAIVDDGKLDTESDSGAFWVLFGGFAPIGRKVANDDDIVPESTPPKLYCITDGKMEPIDGDLSKSMLENTKCYLLDCGAEIYIWVGRVTQVDERKAASQSAEEFLASENRPKATHVTRVIQGYESHSFKSNFDSWPSGSATPGNEEGRGKVAALLKQQGVGLKGIAKSAPVNEDIPPLLESGGKLEVWYVNGKVKTPLPKEDIGKLYSGDCYLVLYTYHSGERKDEYFLSCWFGKKSIPEDQDTAIRLANTMSNSLKGRPVQGRIYEGKEPPQFVALFQPMVVLKGGLSSGYKSSMGESESTDETYTPESIALVQVSGTGVHNNKAVQVETVATSLNSYECFLLQSGTSMFLWHGNQSTHEQLELATKVAEFLKPGITLKHAKEGTESSTFWFALGGKQNFTSKKASSETIRDPHLFSFAFNRGKFQVEEIYNFAQDDLLTEDIYFLDTHAEVFVWVGQCVEPKEKQTVFEIGQKYIDLAGSLEGLHPKVPIYKINEGNEPCFFTTYFSWDATKAIVQGNSFQKKASLLFGTHHVVEDKSNGGNQGLRQRAEALAALNSAFNSSSNRPAYSSQDRLNESHDGPRQRAEALAALSSAFNSSSSSTKSPPPPRPVGTSQASQRAAAVAALSQVLVAENKKSPDTSPTRRSTSSNPADDIPLTEAKDEEEASEVAGLEAKEEEEVSPAADETEAKQETEEQGDSEIQPSGATFTYEQLRAKSENPVTGIDFKRREAYLSEEEFQSVFGIEKEAFNNLPRWKQDLLKKKFDLF | 3.54
11 | PCS1, phytochelatin synthase 1 (PCS1) (protein, UniProt Q9S7Z3 1-485, looked up) Glutathione gamma-glutamylcysteinyltransferase 1: MAMASLYRRSLPSPPAIDFSSAEGKLIFNEALQKGTMEGFFRLISYFQTQSEPAYCGLASLSVVLNALSIDPGRKWKGPWRWFDESMLDCCEPLEVVKEKGISFGKVVCLAHCSGAKVEAFRTSQSTIDDFRKFVVKCTSSENCHMISTYHRGVFKQTGTGHFSPIGGYNAERDMALILDVARFKYPPHWVPLKLLWEAMDSIDQSTGKRRGFMLISRPHREPGLLYTLSCKDESWIEIAKYLKEDVPRLVSSQHVDSVEKIISVVFKSLPSNFNQFIRWVAEIRITEDSNQNLSAEEKSRLKLKQLVLKEVHETELFKHINKFLSTVGYEDSLTYAAAKACCQGAEILSGSPSKEFCCRETCVKCIKGPDDSEGTVVTGVVVRDGNEQKVDLLVPSTQTECECGPEATYPAGNDVFTALLLALPPQTWSGIKDQALMHEMKQLISMASLPTLLQEEVLHLRRQLQLLKRCQENKEEDDLAAPAY | 3.43
